Positions count from the first letter of the chain named. Names may count otherwise.
B1: R409A: COI1 alanine substitution mutant at R409 (protein)
chain: MEDPDIKRCKLSCVATVDDVIEQVMTYITDPKDRDSASLVCRRWFKIDSETREHVTMALCYTATPDRLSRRFPNLRSLKLKGKPRAAMFNLIPENWGGYVTPWVTEISNNLRQLKSVHFRRMIVSDLDLDRLAKARADDLETLKLDKCSGFTTDGLLSIVTHCRKIKTLLMEESSFSEKDGKWLHELAQHNTSLEVLNFYMTEFAKISPKDLETIARNCRSLVSVKVGDFEILELVGFFKAAANLEEFCGGSLNEDIGMPEKYMNLVFPRKLCRLGLSYMGPNEMPILFPFAAQIRKLDLLYALLETEDHCTLIQKCPNLEVLETRNVIGDRGLEVLAQYCKQLKRLRIERGADEQGMEDEEGLVSQRGLIALAQGCQELEYMAVYVSDITNESLESIGTYLKNLCDFALVLLDREERITDLPLDNGVRSLLIGCKKLRRFAFYLRQGGLTDLGLSYIGQYSPNVRWMLLGYVGESDEGLMEFSRGCPNLQKLEMRGCCFSERAIAAAVTKLPSLRYLWVQGYRASMTGQDLMQMARPYWNIELIPSRRVPEVNQQGEIREMEHPAHILAYYSLAGQRTDCPTTVRVLKEPI
B2: R348: COI1 alanine substitution mutant at R348 (protein, UniProt O04197 1-592, looked up, variant R348A)
Coronatine-insensitive …: B1 chain with R348A, A409R
B3: G357: COI1 alanine substitution mutant at G357 (protein, UniProt O04197 1-592, looked up, variant G357A)
Coronatine-insensitive …: B1 chain with G357A, A409R
B4: R351: COI1 alanine substitution mutant at R351 (protein, UniProt O04197 1-592, looked up, variant R351A)
Coronatine-insensitive …: B1 chain with R351A, A409R
B5: F89: COI1 alanine substitution mutant at F89 (protein, UniProt O04197 1-592, looked up, variant F89A)
Coronatine-insensitive …: B1 chain with F89A, A409R
B6: Y444A: COI1 alanine substitution mutant at Y444 (protein)
chain: B1 chain with A409R, Y444A
B7: D354: COI1 alanine substitution mutant at D354 (protein, UniProt O04197 1-592, looked up, variant D354A)
Coronatine-insensitive …: B1 chain with D354A, A409R
B8: E173: COI1 alanine substitution mutant at E173 (protein, UniProt O04197 1-592, looked up, variant E173A)
Coronatine-insensitive …: B1 chain with E173A, A409R
B9: R121: COI1 alanine substitution mutant at R121 (protein, UniProt O04197 1-592, looked up, variant R121A)
Coronatine-insensitive …: B1 chain with R121A, A409R
B10: Y302A: COI1 alanine substitution mutant at Y302 (protein)
chain: B1 chain with Y302A, A409R
B11: R326A: COI1 alanine substitution mutant at R326 (protein)
chain: B1 chain with R326A, A409R
B12: L91: COI1 alanine substitution mutant at L91 (protein, UniProt O04197 1-592, looked up, variant L91A)
Coronatine-insensitive …: B1 chain with L91A, A409R
B13: A384D: COI1 substitution mutant at A384 (protein)
chain: B1 chain with A384D, A409R
B14: A384L: COI1 substitution mutant at A384 (protein)
chain: B1 chain with A384L, A409R
B15: A384P: COI1 substitution mutant at A384 (protein)
chain: B1 chain with A384P, A409R
B16: A384C: COI1 substitution mutant at A384 (protein)
chain: B1 chain with A384C, A409R
B17: A384N: COI1 substitution mutant at A384 (protein)
chain: B1 chain with A384N, A409R
B18: COI1A86V: COI1 mutant, alanine 86 substituted with valine (protein)
chain: B1 chain with A86V, A409R
modifications: left off: small tags and cut ends
notes: COI1 mutant, alanine 86 substituted with valine
B19: A384G: COI1 substitution mutant at A384 (protein)
chain: B1 chain with A384G, A409R
B20: COI1A384I: COI1 mutant, alanine 384 substituted with isoleucine (protein)
chain: B1 chain with A384I, A409R
modifications: left off: small tags and cut ends
notes: COI1 mutant, alanine 384 substituted with isoleucine
B21: COI1A86I: COI1 mutant, alanine 86 substituted with isoleucine (protein)
chain: B1 chain with A86I, A409R
modifications: left off: small tags and cut ends
notes: COI1 mutant, alanine 86 substituted with isoleucine
B22: A384T: COI1 substitution mutant at A384 (protein)
chain: B1 chain with A384T, A409R
B23: COI1A384S: COI1 mutant, alanine 384 substituted with serine (protein)
chain: B1 chain with A384S, A409R
modifications: left off: small tags and cut ends
notes: COI1 mutant, alanine 384 substituted with serine
B24: R85A: COI1 alanine substitution mutant at R85 (protein)
chain: B1 chain with R85A, A409R

System: COI1-JAZ9 interaction
Experiment: Y2H assays on plates for protein-protein interaction
Format: cell-based, Arabidopsis
Conditions: 10 μM COR, yeast
Protocol: (§1) Yeast EGY48 strain carrying the p8Op:LacZ reporter plasmid was co-transformed with pGilda:COI1 (or COI1 mutants) and pB42AD:JAZ9 (or other JAZs) (Clontech). Colonies were selected on SD minimal plates (BD Biosciences) supplemented with the—uracil (U)/-tryptophan (W)/-histidine (H) amino acid drop out solution (Clontech). Yeast colonies were cultured overnight in liquid SD-UWH medium, harvested, washed twice in sterile water, and the absorbance (OD600) of the cultures was adjusted to 0.2 in liquid SD galactose/raffinose-UWH medium (BD Biosciences).
For Y2H assays on plates, 10-μL culture was spotted onto SD galactose/raffinose-UWH plates with 80 μg/mL X-gal and 10 μM COR (Sigma-Aldrich). Blue color indicated protein-protein interactions after 5-7 days of incubation at 30° C.

| Molecule | COR-dependent COI1-JAZ9 interaction |
| --- | --- |
| B1 | reduced |
| B2 | reduced |
| B3 | reduced |
| B4 | reduced |
| B5 | reduced |
| B6 | disrupted |
| B7 | reduced |
| B8 | reduced |
| B9 | reduced |
| B10 | disrupted |
| B11 | disrupted |
| B12 | reduced |

Same assay, conditions: 10 μM COR, yeast, listed as R326

| Molecule | COR-dependent COI1-JAZ9 interaction |
| --- | --- |
| B11 | reduced |

Same assay, conditions: 10 μM COR, yeast, listed as Y302

| Molecule | COR-dependent COI1-JAZ9 interaction |
| --- | --- |
| B10 | reduced |

Same assay, conditions: 10 μM COR, yeast, listed as Y444

| Molecule | COR-dependent COI1-JAZ9 interaction |
| --- | --- |
| B6 | reduced |

System: COI1-JAZ9 interaction
Experiment: Quantitative liquid Y2H assays (Beta-Glo, RLU)
Format: cell-based, Arabidopsis
Conditions: liquid Y2H, 1 μM COR, yeast
Protocol: as §1
For liquid Y2H assays, cultures were supplemented with designated concentrations of JA-Ile (10 or 30 μM), COR (1 μM), or DMSO. After 16-h incubation with ligands, the liquid cultures were processed through the Beta-Glo Assay system (Promega) for detecting the β-galactosidase activity. […] Protein expression in yeast was detected using anti-LexA antibody (1:5,000; Upstate Biotechnology) for detection of COI1 expression from pGilda vector and anti-HA (1:5,000; Roche Life Science) antibody for detection of JAZ9 expression in pB42AD vector.

| Molecule | COR-dependent COI1-JAZ9 interaction |
| --- | --- |
| B1 | reduced |
| B13 | completely disrupted |
| B14 | completely disrupted |
| B15 | completely disrupted |
| B16 | reduced |
| B17 | completely disrupted |
| B18 | reduced |
| B19 | completely disrupted |
| B20 | disrupted |
| B21 | reduced |
| B22 | completely disrupted |

Same assay, conditions: liquid Y2H, 10 or 30 μM JA-Ile, yeast

| Molecule | JA-Ile-dependent COI1-JAZ9 interaction |
| --- | --- |
| B1 | reduced |
| B13 | completely disrupted |
| B14 | completely disrupted |
| B15 | completely disrupted |
| B16 | reduced |
| B17 | completely disrupted |
| B18 | abolished |
| B19 | completely disrupted |
| B20 | disrupted |
| B21 | abolished |
| B23 | reduced |
| B22 | completely disrupted |

Same assay, conditions: liquid Y2H, yeast

| Molecule | differential effect on JA-Ile-dependent vs COR-dependent COI1-JAZ9 interaction |
| --- | --- |
| B24 | affect JAIle-dependent interaction more than COR-dependent interaction |

Same assay, conditions: yeast; JA-Ile is a mixture of active and inactive isomers, COR pure

| Molecule | concentrations equivalent in promoting the COI1-JAZ9 interaction [µM] |
| --- | --- |
| CC/C=C\C[C@H]1C(=O)CC[C@@H]1CC(=O)N[C@H](C(=O)O)[C@@H](C)CC [JA-Ile, jasmonoyl-L-isoleucine, reference compound] | 10 |
